Assay results taken from the Human Domainome abundance scans (Beltran et al. 2025).
± gives the uncertainty stated by the source.

B1: GA-binding protein alpha chain, residues 172 to 250; numbered along this chain, Q06546 (parent)
chain: GYRKEQERLGIPYDPIQWSTDQVLHWVVWVMKEFSMTDIDLTTLNISGRELCSLNQEDFFQRVPRGEILWSHLELLRKY

Variants of: B1
Assay: abundance fitness (aPCA) (normalised: wild type 0, dead -1); higher = more abundant; growth selection in yeast, the domain comes from the species named
Details: Homo sapiens

In order of rising abundance fitness:
1. GYRKEQERLGIPYDPIQWSTDQVLHWVVWVMKEFSMTDIDLTTLNISGRELCSLNQEDFFQRVPRMEILWSHLELLRKY  -0.967 ± 0.16
2. GYRKEQERLGIPYDPIQWSTDQVLHWVVWVMKEFSMTDIDLTTLNISGRELCSLNQEDFFQRVMRGEILWSHLELLRKY  -0.952 ± 0.33
3. GYRKEQERLGIPYDPIQWSTDQVLHWVVWVMKEFSMTDIDLTTLNISGRELCSLNQEDFFQRVPRDEILWSHLELLRKY  -0.889 ± 0.13
4. GYRKEQERLGIPYDPIQWSTDQVLHWVVWVMKEFSMTDIDLTTLNISGRELCSLNQEDFFQRVPRLEILWSHLELLRKY  -0.795 ± 0.077
5. GYRKEQERLGIPYDPIQWSTDQVLHWVVWVMKEFSMTDIDLTTLNISGRELCSLNQEDFFQRVPRIEILWSHLELLRKY  -0.772 ± 0.37
6. GYRKEQERLGIPYDPIQWSTDQVLHWVVWVMKEFSMTDIDLTTLNISGRELCSLNQEDFFQRVYRGEILWSHLELLRKY  -0.744 ± 0.13
7. GYRKEQERLGIPYDPIQWSTDQVLHWVVWVMKEFSMTDIDLTTLNISGRELCSLNQEDFFQRVPRKEILWSHLELLRKY  -0.728 ± 0.12
8. GYRKEQERLGIPYDPIQWSTDQVLHWVVWVMKEFSMTDIDLTTLNISGRELCSLNQEDFFQRVWRGEILWSHLELLRKY  -0.67 ± 0.062
9. GYRKEQERLGIPYDPIQWSTDQVLHWVVWVMKEFSMTDIDLTTLNISGRELCSLNQEDFFQRVFRGEILWSHLELLRKY  -0.611 ± 0.23
10. GYRKEQERLGIPYDPIQWSTDQVLHWVVWVMKEFSMTDIDLTTLNISGRELCSLNQEDFFQRVPRHEILWSHLELLRKY  -0.608 ± 0.11
11. GYRKEQERLGIPYDPIQWSTDQVLHWVVWVMKEFSMTDIDLTTLNISGRELCSLNQEDFFQRVIRGEILWSHLELLRKY  -0.554 ± 0.15
12. GYRKEQERLGIPYDPIQWSTDQVLHWVVWVMKEFSMTDIDLTTLNISGRELCSLNQEDFFQRVPPGEILWSHLELLRKY  -0.455 ± 0.05
13. GYRKEQERLGIPYDPIQWSTDQVLHWVVWVMKEFSMTDIDLTTLNISGRELCSLNQEDFFQRVVRGEILWSHLELLRKY  -0.406 ± 0.039
14. GYRKEQERLGIPYDPIQWSTDQVLHWVVWVMKEFSMTDIDLTTLNISGRELCSLNQEDFFQRVTRGEILWSHLELLRKY  -0.333 ± 0.044
15. GYRKEQERLGIPYDPIQWSTDQVLHWVVWVMKEFSMTDIDLTTLNISGRELCSLNQEDFFQRVPRCEILWSHLELLRKY  -0.298 ± 0.04
16. GYRKEQERLGIPYDPIQWSTDQVLHWVVWVMKEFSMTDIDLTTLNISGRELCSLNQEDFFQRVQRGEILWSHLELLRKY  -0.266 ± 0.05
17. GYRKEQERLGIPYDPIQWSTDQVLHWVVWVMKEFSMTDIDLTTLNISGRELCSLNQEDFFQRVSRGEILWSHLELLRKY  -0.219 ± 0.041
18. GYRKEQERLGIPYDPIQWSTDQVLHWVVWVMKEFSMTDIDLTTLNISGRELCSLNQEDFFQRVNRGEILWSHLELLRKY  -0.177 ± 0.16
19. GYRKEQERLGIPYDPIQWSTDQVLHWVVWVMKEFSMTDIDLTTLNISGRELCSLNQEDFFQRVPFGEILWSHLELLRKY  -0.177 ± 0.082
20. GYRKEQERLGIPYDPIQWSTDQVLHWVVWVMKEFSMTDIDLTTLNISGRELCSLNQEDFFQRVKRGEILWSHLELLRKY  -0.159 ± 0.057
21. GYRKEQERLGIPYDPIQWSTDQVLHWVVWVMKEFSMTDIDLTTLNISGRELCSLNQEDFFQRVGRGEILWSHLELLRKY  -0.158 ± 0.034
22. GYRKEQERLGIPYDPIQWSTDQVLHWVVWVMKEFSMTDIDLTTLNISGRELCSLNQEDFFQRVPVGEILWSHLELLRKY  -0.157 ± 0.043
23. GYRKEQERLGIPYDPIQWSTDQVLHWVVWVMKEFSMTDIDLTTLNISGRELCSLNQEDFFQRVPLGEILWSHLELLRKY  -0.141 ± 0.037
24. GYRKEQERLGIPYDPIQWSTDQVLHWVVWVMKEFSMTDIDLTTLNISGRELCSLNQEDFFQRVPMGEILWSHLELLRKY  -0.127 ± 0.065
25. GYRKEQERLGIPYDPIQWSTDQVLHWVVWVMKEFSMTDIDLTTLNISGRELCSLNQEDFFQRVPHGEILWSHLELLRKY  -0.111 ± 0.071
26. GYRKEQERLGIPYDPIQWSTDQVLHWVVWVMKEFSMTDIDLTTLNISGRELCSLNQEDFFQRVPNGEILWSHLELLRKY  -0.07 ± 0.15
27. GYRKEQERLGIPYDPIQWSTDQVLHWVVWVMKEFSMTDIDLTTLNISGRELCSLNQEDFFQRVPYGEILWSHLELLRKY  -0.033 ± 0.089
28. GYRKEQERLGIPYDPIQWSTDQVLHWVVWVMKEFSMTDIDLTTLNISGRELCSLNQEDFFQRVPRAEILWSHLELLRKY  -0.025 ± 0.039
29. GYRKEQERLGIPYDPIQWSTDQVLHWVVWVMKEFSMTDIDLTTLNISGRELCSLNQEDFFQRVPKGEILWSHLELLRKY  -0.013 ± 0.078
30. GYRKEQERLGIPYDPIQWSTDQVLHWVVWVMKEFSMTDIDLTTLNISGRELCSLNQEDFFQRVPCGEILWSHLELLRKY  -0.004 ± 0.081
31. GYRKEQERLGIPYDPIQWSTDQVLHWVVWVMKEFSMTDIDLTTLNISGRELCSLNQEDFFQRVPAGEILWSHLELLRKY  -0.003 ± 0.04
32. GYRKEQERLGIPYDPIQWSTDQVLHWVVWVMKEFSMTDIDLTTLNISGRELCSLNQEDFFQRVPGGEILWSHLELLRKY  0.007 ± 0.026
33. GYRKEQERLGIPYDPIQWSTDQVLHWVVWVMKEFSMTDIDLTTLNISGRELCSLNQEDFFQRVPEGEILWSHLELLRKY  0.033 ± 0.055
34. GYRKEQERLGIPYDPIQWSTDQVLHWVVWVMKEFSMTDIDLTTLNISGRELCSLNQEDFFQRVPDGEILWSHLELLRKY  0.084 ± 0.056
